Assay results published in US20160264653A1 (published 2016).
Each block holds one binder with its values, some of them ahead of it.

Tests used:
[1] = molecular target: T1, mouse ephrin-A4 homolog (recombinantly expressed, monomeric) (mouse, UniProt O08542 26-175); experiment: label-free interaction analysis
T1 chain: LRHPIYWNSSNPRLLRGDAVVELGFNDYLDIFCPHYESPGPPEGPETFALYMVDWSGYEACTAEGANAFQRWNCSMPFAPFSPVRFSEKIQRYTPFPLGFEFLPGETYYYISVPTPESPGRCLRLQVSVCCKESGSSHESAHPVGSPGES

human ephrin-A4-His [2] = molecular target: T2, human ephrin-A4-His (UniProt P52798 26-170); experiment: label-free interaction analysis
T2 chain: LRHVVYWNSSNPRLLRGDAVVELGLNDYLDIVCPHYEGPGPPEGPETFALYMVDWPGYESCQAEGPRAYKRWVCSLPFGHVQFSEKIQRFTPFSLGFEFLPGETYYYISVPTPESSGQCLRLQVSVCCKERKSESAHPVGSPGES

human ephrin-A4-His [3] = molecular target: T2, human ephrin-A4-His; experiment: ForteBIO
hEFNA4-Fc [4] = molecular target: T3, hEFNA4-Fc (human, UniProt P01857 100-330 = IgG part); experiment: cell surface binding inhibition (flow cytometry); 0.1 ug/ml hEphrinA4-Fc
mEFNA4-Fc [5] = molecular target: T4, mEFNA4-Fc (mouse;human, UniProt O08542 26-176; P01857 100-330 = IgG part); experiment: cell surface binding inhibition (flow cytometry); 0.1 ug/ml mEphrinA4-Fc
mEFNA4-Fc [6] = molecular target: T4, mEFNA4-Fc; experiment: cell surface binding inhibition (flow cytometry); 1.0 ug/ml mEphrinA4-Fc
hEFNA4-Fc [7] = molecular target: T3, hEFNA4-Fc; experiment: cell surface binding inhibition (flow cytometry); 1.0 ug/ml hEphrinA4-Fc
human ephrin-A4-His [8] = molecular target: T2, human ephrin-A4-His; experiment: Biacore

B2: SC4.2 (antibody, V domains shown)
VH: QVQLQQSGAELVRPGTSVTLSCKASGYTFTDYEMHWVKQTPVLGLEWIGAFDPETGNTVYNQKFKGKATLTADKSPNTAYMELISLTSEDSAVYYCARGYPAWFGYWGQGTLVTVSA
VL: DVVMTQIPLSLPVTLGDQASISCRSSQSLAHTNGNTYLHWYLQKPGQSPKLLIYKVSNRFSGVPDRFSGSGSGTDFTLKISRVEAEDLGVYFCSQDTHVPPTFGGGTKLEMK
Kd (human ephrin-A4-His [3]): 20 nM

B3: E15.3 Ab (antibody, V domains shown)
VH: EVQVVESGGDLVKPGGSLKLSCAASGFTFSTYGMSWVRQTPDKRLEWVATISSGGTYTYYPDSVKGRFKISRDNAKDTLYLQMSSLKSEDTAMYYCTRHDPNDGYYFLFAYWGQGTLVIVSA
VL: SIGRTQIPKFLPVSAGDRVTMTCKASQSVGNNVAWYQQKAGQSPKLLIYYASNRYTGVPDRFTGSGSGTDFTFTISSVQVEDLAVYFCQQHYSSPLTFGAGTKLELK
IC50 (hEFNA4-Fc [4]): 1.14 µg/mL
IC50 (mEFNA4-Fc [5]): 2.09 µg/mL
IC50 (mEFNA4-Fc [6]): 16.7 µg/mL
IC50 (hEFNA4-Fc [7]): 20.1 µg/mL

B4: SC4.15 (Murine mAb) (antibody, V domains shown)
VH: EVQVVESGGDLVKPGGSLKLSCAASGFTFSTYGMSWVRQTPDKRLEWVATISSGGTYTYYPDSVKGRFKISRDNAKDTLYLQMSSLKSEDTAMYYCTRHDPNDGYYFLFAYWGQGTLVIVSA
VL: SIGRTQIPKFLPVSAGDRVTMTCKASQSVGNNVAWYQQKAGQSPKLLIYYASNRYTGVPDRFTGSGSGTDFTFTISSVQVEDLAVYFCQQHYSSPLTFGAGTKLELK
Kd (human ephrin-A4-His [2]): 2.7 nM

B5: SC4.15 (antibody, V domains shown)
VH: EVQVVESGGDLVKPGGSLKLSCAASGFTFSTYGMSWVRQTPDKRLEWVATISSGGTYTYYPDSVKGRFKISRDNAKDTLYLQMSSLKSEDTAMYYCTRHDPNDGYYFLFAYWGQGTLVIVSA
VL: SIGRTQIPKFLPVSAGDRVTMTCKASQSVGNNVAWYQQKAGQSPKLLIYYASNRYTGVPDRFTGSGSGTDFTFTISSVQVEDLAVYFCQQHYSSPLTFGAGTKLELK
Kd (human ephrin-A4-His [8]): 4.8 nM

B6: E47.3 Ab (antibody, V domains shown)
VH: EVQLQQSGPELVKPGASVKISCTASGYTFTYFYMNWVKQSQGKSLEWVGQINPNNGGTAYNHKFRGKTTLTVDKSSNTAFMELRSLTSEDSAVYFCARWVGTHYFDYWGQGTTLTVSS
VL: DIVLTQSPASLPVSLGQRATISCRASQSVSSSSYTYIHWYQQKPGQPPKLLINFASNLESGVPARFSVSGSGTDFTLNIHPVEGEDTATYYCQHSWEIPPTFGGGTKLEIK
IC50 (hEFNA4-Fc [4]): ~0.124 µg/mL
IC50 (mEFNA4-Fc [5]): ~0.0183 µg/mL
IC50 (mEFNA4-Fc [6]): ~0.0217 µg/mL
IC50 (hEFNA4-Fc [7]): 1.54 µg/mL

B8: SC4.5 (antibody, V domains shown)
VH: QVQLKQSGPGLVAPSQSLSITCTVSGFSLTTYGVDWVRQSPGKGLEWLGVIWGGGSTNYNSALKSRLSISKDNSKSQVFLKMNSLQTDDTAMYYCASDWAYWGQGTLVTVSA
VL: DIVMTQSQKFMSTSVGDRVTVTCKASQNVGTNVAWFQQKSGQSPKPLIHSASYRYSGVPDRFTGSGSGTDFTLTITNVQSEDLVAYFCQQYKRYPYTFGGGTKLEIKR
Kd (human ephrin-A4-His [8]): 0.3 nM

B12: SC4.22 (antibody, V domains shown)
VH: QIQLQQSGPELVKPGASVKISCKASGYTFTGYYIHWVKQRPGQGLEWIGWIYPGNFNTKYNERFKGMATLTVDTSSSTAYMQLSSLTSEDSAVYLCAREDGSPYYAMDYWGQGTSVTVSS
VL: DVVMTQTPLSLPVSLGDQASISCRSSQSLVHSNGNTFLYWYLQKPGQSPKLLIYRVSNRFSGVPDRFSGSGSGTDFTLKISRVEAEDLGVYFCFQATHVPWTFGGGTKLEIK
Kd (human ephrin-A4-His [8]): 3.1 nM

Now from value to binder:

Kd [1]: 3.4 nM
Kd (human ephrin-A4-His [2]): 4.8 nM
B1: hSC4.15 (antibody, V domains shown)
VH: EVQLVESGGGLVKPGGSLRLSCAASGFTFSTYGMSWVRQAPGKGLEWVATISSGGTYTYYPDSVKGRFKISRDNAKNSLYLQMNSLRAEDTAVYYCTRHDPNDGYYFLFAYWGQGTLVTVSS
VL: EIVLTQSPGTLSLSPGERATLSCKASQSVGNNVAWYQQKPGQAPRLLIYYASNRYTGIPDRFSGSGSGTDFTLTISRLEPEDFAVYYCQQHYSSPLTFGAGTKLEIK

Kd [1]: > 100 nM
B7: hSC4.47 (antibody, V domains shown)
VH: QVQLVQSGAEVKKPGASVKVSCKASGYTFTYFYMNWVRQAPGQGLEWVGQINPNNGGTAYAQKFQGRVTMTRDTSTSTVYMELSSLRSEDTAVYYCARWVGTHYFDYWGQGTTLTVSS
VL: EIVLTQSPATLSLSPGERATLSCRASQSVSSSSYTYIHWYQQKPGQAPRLLINFASNLESGIPARFSGSGSGTDFTLTISSLEPEDFAVYYCQHSWEIPPTFGGGTKLEIK

Kd (human ephrin-A4-His [8]): 11 nM
B9: SC4.31 (antibody, V domains shown)
VH: QVQLQQPGAELVRPGASVKLSCKASGYTFTRDWMHWIKQRPGQGLDWIGTIHPYDSETHYNQNFKDKATLTVDKSSSTAYMQLSSLTSEDSAVYYCVTFIKTMVDTYYYAMDYWGQGTSVTVSS
VL: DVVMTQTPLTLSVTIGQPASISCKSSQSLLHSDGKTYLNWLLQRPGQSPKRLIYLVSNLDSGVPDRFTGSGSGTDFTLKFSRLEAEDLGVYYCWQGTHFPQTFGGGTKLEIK

Kd [1]: > 100 nM
Kd (human ephrin-A4-His [2]): 3.8 nM
B10: hSC4.22 (antibody, V domains shown)
VH: QVQLVQSGAEVKKPGASVKVSCKASGYTFTGYYIHWVRQAPGQGLEWMGWIYPGNFNTKYNERFKGRVTMTTDTSTSTAYMELRSLRSDDTAVYYCAREDGSPYYAMDYWGQGTSVTVSS
VL: DIVMTQTPLSLSVTPGQPASISCRSSQSLVHSNGNTFLYWYLQKPGQSPQLLIYRVSNRFSGVPDRFSGSGSGTDFTLKISRVEAEDVGVYYCFQATHVPWTFGGGTKVEIK

Kd (human ephrin-A4-His [2]): 3.1 nM
B11: SC4.22 (Murine mAb) (antibody, V domains shown)
VH: QIQLQQSGPELVKPGASVKISCKASGYTFTGYYIHWVKQRPGQGLEWIGWIYPGNFNTKYNERFKGMATLTVDTSSSTAYMQLSSLTSEDSAVYLCAREDGSPYYAMDYWGQGTSVTVSS
VL: DVVMTQTPLSLPVSLGDQASISCRSSQSLVHSNGNTFLYWYLQKPGQSPKLLIYRVSNRFSGVPDRFSGSGSGTDFTLKISRVEAEDLGVYFCFQATHVPWTFGGGTKLEIK
